# In IntAct's records for PubMed 22483105:
# Target: ubc4_yeast UBC4 (UniProt P15731)
# Sequence (P15731 whole entry): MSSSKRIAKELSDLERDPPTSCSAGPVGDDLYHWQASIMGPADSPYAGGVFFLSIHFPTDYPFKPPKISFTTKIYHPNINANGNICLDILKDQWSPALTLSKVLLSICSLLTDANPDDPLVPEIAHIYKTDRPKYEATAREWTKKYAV
row,Substance,effect of a mutation on the interaction
1,"E3 ubiquitin-protein ligase RSP5 (Saccharomyces cerevisiae), P39940 Y647M",decreasing interaction strength
2,"E3 ubiquitin-protein ligase RSP5 (Saccharomyces cerevisiae), P39940 L607M",decreasing interaction strength
3,"E3 ubiquitin-protein ligase RSP5 (Saccharomyces cerevisiae), P39940 W597M",disrupting interaction strength
4,"E3 ubiquitin-protein ligase RSP5 (Saccharomyces cerevisiae), P39940 D614M",decreasing interaction strength
5,"E3 ubiquitin-protein ligase RSP5 (Saccharomyces cerevisiae), P39940 S594M",decreasing interaction strength
